Biological target: His-DDX39B (UniProt Q13838 1-428)
Assay: EMSA; 0-300 ng protein; bound more than -1A; EMSA: bacterially expressed DDX39B, 32P probes, non-denaturing 5% acrylamide gel; binding buffer, salt, pH and temperature not given. Pull-down: U87 nuclear extract pre-cleared with non-specific biotin DNA, 2 h with probe
Conditions: protein: recombinant; tags: N-terminal His (pET-45b, 5' polyhistidine); label: 32P (T4 PNK); blunt

His-DDX39B, sequence (Q13838 whole entry): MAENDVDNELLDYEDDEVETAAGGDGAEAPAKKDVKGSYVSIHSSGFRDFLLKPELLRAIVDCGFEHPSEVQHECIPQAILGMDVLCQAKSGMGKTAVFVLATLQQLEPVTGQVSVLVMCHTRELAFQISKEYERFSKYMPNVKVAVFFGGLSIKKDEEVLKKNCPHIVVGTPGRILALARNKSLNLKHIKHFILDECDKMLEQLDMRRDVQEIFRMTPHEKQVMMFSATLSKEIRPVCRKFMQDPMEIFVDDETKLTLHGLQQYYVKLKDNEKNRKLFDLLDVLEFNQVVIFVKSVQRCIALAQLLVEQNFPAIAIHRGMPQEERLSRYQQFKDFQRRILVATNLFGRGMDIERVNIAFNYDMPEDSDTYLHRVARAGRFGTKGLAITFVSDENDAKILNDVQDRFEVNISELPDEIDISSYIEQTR

B1: -1C kB probe (dsDNA)
DNA 1: TCGAGTTAGATGGGGACTTTCCAGGCAC
DNA 2: GTGCCTGGAAAGTCCCCATCTAACTCGA
binding result: binds
